The values that follow come from article PMC3243729.

For this assay, the target named is EGFP-N-Talin1-C-mCherry (UniProt P26039). As to the kind of experiment: single-molecule photobleaching step counting and point spread function fit (TIRF microscopy); living CV1 cells with low expression of EGFP-Talin1-mCherry; EGFP spots more than 500 nm from other EGFPs; bleaching steps counted and the spot shape fitted to a single or a dimeric PSF. The note with it: remark: other sources report otherwise.

As a reminder, the stoichiometry N is a count of units in the complex or per binding partner.

As for EGFP-N-Talin1-C-mCherry, P26039 1-2541, the stoichiometry N came to 2.
